Paper PMC9334217

Assays:
[1] = system: CCn1c(=NN=c2sc3cc(S(=O)(=O)O)ccc3n2CC)sc2cc(S(=O)(=O)O)ccc21; experiment: purified protein; details: 1.5 mM H2O2, 100 mM sodium acetate, pH 4.3, 25 °C, variant 29E4
[2] = biological target: PpDyP variant 6E10 (E188K/A142V/H125Y) (Pseudomonas putida MET94); experiment: crystal structure

Row | Substance | Km [1] [µM] | stoichiometry N [2]
1 | PpDyP (Pseudomonas putida KT2440; E188K/H125Y) | 810 ± 190 | 
2 | PpDyP variant 6E10 (E188K/A142V/H125Y) (enzyme) |  | 4
